In PMC8617373 (Cell Research, 2021):

B1: KREMEN1 expressed on HEK293E cells (receptor)
chain: ARPAPSPGLGPECFTANGADYRGTQNWTALQGGKPCLFWNETFQHPYNTLKYPNGEGGLGEHNYCRNPDGDVSPWCYVAEHEDGVYWKYCEIPACQMPGNLGCYKDHGNPPPLTGTSKTSNKLTIQTCISFCRSQRFKFAGMESGYACFCGNNPDYWKYGEAASTECNSVCFGDHTQPCGGDGRIILFDTLVGACGGNYSAMSSVVYSPDFPDTYATGRVCYWTIRVPGASHIHFSFPLFDIRDSADMVELLDGYTHRVLARFHGRSRPPLSFNVSLDFVILYFFSDRINQAQGFAVLYQAVKEELPQERPAVNQTVAEVITEQANLSVSAARSSKVLYVITTSPSHPPQTVPGSNSWAPPMGAGSHRVEGWTVYGLATLLILTVTAIVAKILLHVTFKSHRVPASGDLRDCHQPGTSGEIWSIFYKPSTSISIFKKKLKGQSQQDDRNPLVSD
B2: ASGR1 expressed on HEK293E cells (receptor)
chain: MTKEYQDLQHLDNEESDHHQLRKGPPPPQPLLQRLCSGPRLLLLSLGLSLLLLVVVCVIGSQNSQLQEELRGLRETFSNFTASTEAQVKGLSTQGGNVGRKMKSLESQLEKQQKDLSEDHSSLLLHVKQFVSDLRSLSCQMAALQGNGSERTCCPVNWVEHERSCYWFSRSGKAWADADNYCRLEDAHLVVVTSWEEQKFVQHHIGPVNTWMGLHDQNGPWKWVDGTDYETGFKNWRPEQPDDWYGHGLGGGEDCAHFTDDGRWNDDVCQRPYRWVCETELDKASQEPPLL

Target: SARS-CoV-2 S-ECD-hFc (extracellular domain of the spike (S) protein, hFc-tagged) (SARS-CoV-2, UniProt P0DTC2 14-1213)
Assay: flow cytometry on cells

Binder	Kd
B1	19.3 nM
B2	94.8 nM
